The target of assay [1] is T1, human CTLA-4 on 58 α-β-CTLA-4/CD3 ζ cells (human; mouse (mCD3ζ)).
T1 construct: also called 58αβ-hCTLA4/mCD3ζ cells; 58αβ-CTLA4/mCD3ζ cells
The assay can be described thus: flow cytometry (GMFI), full-length IgG on 58 α-β-CTLA-4/CD3 ζ cells, pH 6.3.

Assay [2] concerns the target T1, human CTLA-4 on 58 α-β-CTLA-4/CD3 ζ …. The assay can be described thus: flow cytometry (GMFI), full-length IgG on 58 α-β-CTLA-4/CD3 ζ cells, pH 6.6.
Assay [3] has as its target T2, monomeric human CTLA-4 (human, UniProt P16410 36-161, limits assumed).
T2 construct: Soluble monomeric analyte in SPR; also called huCTLA-4
T2 sequence: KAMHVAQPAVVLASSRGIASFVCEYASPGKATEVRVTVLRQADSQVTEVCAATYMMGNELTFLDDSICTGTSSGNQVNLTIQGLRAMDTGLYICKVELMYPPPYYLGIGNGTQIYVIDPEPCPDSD
The assay can be described thus: SPR, captured Fab, pH 6.0 vs 7.4. As for the experimental part: (§1) Unless otherwise indicated, experiments were performed with a BIACORE® SPR surface plasmon resonance spectrometer (Biacore AB, Uppsala, Sweden). Antibodies were tested as monovalent Fab fragments to simplify analysis.
(§2) Monomeric human CTLA-4 was flowed as analyte with up to 2 μM top concentration. Between cycles, the capture surface was regenerated with 75 mM phosphoric acid. Experiments were run on a BIACORE® T200 instrument at 37° C. Running buffers were HEPES buffered saline for pH 7.4 experiments and Bis-Tris buffered saline for lower pH experiments. […] Double referenced sensorgrams were fitted to a 1:1 Langmuir binding model with mass transport to determine equilibrium dissociation constants (KD), as well as association (kₐ) and dissociation (kd) rate constants where appropriate.

Assay [4] has as its target T2, monomeric human CTLA-4. The assay can be described thus: SPR, captured Fab, pH 6.0. As for the experimental part:
(§3) Binding of selected variants to human CTLA-4 was determined essentially as described in Example 3. […] Nomenclature and sequences for these antibodies is provided at Tables 6 and 7, and in the sequence listing as summarized at Table 8.
as §2

The target in assay [5] is T2, monomeric human CTLA-4. The assay can be described thus: SPR, captured Fab, pH 7.4. As for the experimental part:
as §3, §2

In assay [6] the target is T2, monomeric human CTLA-4. Briefly: SPR, captured Fab, pH 7.4. The protocol: as §1, §2
The source holds these as a separate data set.

For assay [7], the target named is T2, monomeric human CTLA-4. Briefly: SPR, captured Fab, pH 6.0. The protocol: as §1, §2
This is another data set of the same source.

Assay [8] has as its target T2, monomeric human CTLA-4. Briefly: SPR, captured Fab, pH 6.0 vs 7.4. As for the experimental part:
as §3, §2
The source holds these as a separate data set.

In assay [9] the target is T1, human CTLA-4 on 58 α-β-CTLA-4/CD3 ζ …. Briefly: flow cytometry, non-fucosylated IgG1 on 58αβ-CTLA4/mCD3ζ cells, pH 6.2. The protocol:
(§4) Antibodies were titrated from 100 μg/mL at a 1:4 dilution across 12 points in pH-specific buffers and incubated for 30-60 minutes. Buffers contained HBSS, 2% FBS^HI, 0.02% sodium azide, 2 mM EDTA, and sodium phosphate buffer (pH 5.4). Sodium phosphate buffer was added until desired pH was reached (7.2, 6.7, 6.2). Approximately 3e5 cells/well were tested for each cell line. […] Detection was done with a monovalent anti-hKappa secondary nanobody conjugated to Alexa647 and used at a dilution of 1:2000. Cells were fixed with BD Fix Solution I for 30 minutes prior to resuspension in pH-specific buffers and reading on the cytometer (BD Fortessa).

Assay [10] shares this target. Briefly: cell-based or functional assay.
Assay [11] shares this target. Briefly: cell-based or functional assay. The source holds these as a separate data set.
The target is the same in assay [12]. Briefly: cell-based or functional assay. This is another data set of the same source.
The target is the same in assay [13]. The assay can be described thus: flow cytometry, non-fucosylated IgG1 on 58αβ-CTLA4/mCD3ζ cells, pH 6.7. As for the experimental part: as §4
For assay [14] the target is unchanged. The assay can be described thus: flow cytometry, non-fucosylated IgG1 on 58αβ-CTLA4/mCD3ζ cells, pH 7.2. As for the experimental part:
as §4

For assay [15], the target named is T2, monomeric human CTLA-4. The assay can be described thus: SPR, pH 6.0 and pH 7.5 (FIG. 6). The protocol: as §1, §2
Assay [16] has as its target T2, monomeric human CTLA-4. The assay can be described thus: SPR, captured Fab, pH 7.4. The protocol: (§5) See Example 3. Antibodies were tested as monovalent Fab fragments to simplify analysis.
as §2
This is another data set of the same source.

Assay [17] concerns the target T2, monomeric human CTLA-4. The assay can be described thus: SPR, captured Fab, pH 6.0 vs 7.4. As for the experimental part:
as §5, §2
The source holds these as a separate data set.

The target in assay [18] is T2, monomeric human CTLA-4. Briefly: SPR, captured Fab, pH 7.4, second experiment. As for the experimental part:
as §5, §2

Assay [19] concerns the target T2, monomeric human CTLA-4. The assay can be described thus: SPR, captured Fab, pH 6.0, second experiment. As for the experimental part: as §5, §2
The target in assay [20] is T2, monomeric human CTLA-4. The assay can be described thus: SPR, captured Fab, pH 6.0 vs 7.4, second experiment. The protocol: as §5, §2
The target in assay [21] is T2, monomeric human CTLA-4. The assay can be described thus: SPR, captured Fab, first experiment of Table 3. As for the experimental part:
as §5, §2

For assay [22], the target named is T2, monomeric human CTLA-4. The assay can be described thus: SPR, captured Fab, second experiment of Table 3. As for the experimental part: as §5, §2
Assay [23] concerns the target T2, monomeric human CTLA-4. Briefly: SPR, captured Fab, pH 6.0. The protocol: as §5, §2
The source holds these as a separate data set.

Substitutions are numbered along the chain they refer to. Names may count otherwise.

B1: ipi.95 (full-length IgG) (antibody, V domains shown)
VH: QVQLVESGGGVVQPGRSLRLSCAASGFTFSHYTMHWVRQAPGKGLEWVTFISYDGHNKYYADSVKGRFTISRDNSKNTLYLQMNSLRAEDTAIYYCARTGWLGPFDYWGQGTLVTVSS
VL: EIVLTQSPGTLSLSPGERATLSCRASQEVGDSELAWYQQKPGQAPRLLIYGAFSRATGIPDRFSGSGSGTDFTLTISRLEPEDFAVYYCQQYGSSPWTFGQGTKVEIKR
notes: Full-length bivalent IgG (human IgG1); heavy chain entry is without the C-terminal lysine
Take B1: the “EC50 (read off the curve)” value in assay [1] and in [2] was ~1 nM each time.

B2: ipi.2 Fab (Fab, V domains shown)
VH: B1 VH with H31S, H56N, N57H
VL: not shown
notes: Tested as monovalent Fab; also called N56H (Kabat)
For the molecule B2, in [3], the “KD 7.4/6 (APBP)” value came out at 0.8. In [4], the affinity, expressed as Kd, was 6.8 nM; the kon is 1.2e+06 M⁻¹ s⁻¹; the “t1/2” value was 1.38 min. For the same molecule, in assay [5], the affinity, expressed as Kd, was 5.8 nM; the kon amounted to 880000 M⁻¹ s⁻¹; the “t1/2” value was 2.27 min. Further, in [6], the Kd amounted to 16 nM, the koff is 0.011 s⁻¹ and the kon stood at 670000 M⁻¹ s⁻¹. Moreover, in [7], binding was characterised by a dissociation constant (Kd) of 13 nM, the koff turned out to be 0.0065 s⁻¹ and the kon amounted to 490000 M⁻¹ s⁻¹. In assay [8], the “KD 7.4/6 (APBP)” value stood at 0.9, the “ka 6/7.4” value was 1.4 and the “t1/2 6/7.4” value was 0.6.

B3: ipi.101, non-fucosylated IgG1 (antibody, V domains shown)
VH: B1 VH
VL: not shown
modifications: non-fucosylated N-linked glycan
notes: Non-fucosylated full-length human IgG1; also called Ipi.101 IgG1-NF
As for B3, the “Cmax (MFI)” value was 121000 MFI in [9], 126000 MFI in assay [13] and 124000 MFI in assay [14]. Also, the EC50 in assay [9] was found to be 3.52 nM; in assay [13] it was 4.06 nM; in assay [14] it was 3.81 nM. In [10], the “IC50 (read off the curve), mIL-2 secretion, 58αβ-hCTLA/mCD3ζ:rhB7-1 blocking assay, 18 h, pH 6.8” value was ~0.7 nM. Further, in assay [11], the “IC50 (read off the curve), mIL-2 secretion, 58αβ-hCTLA/mCD3ζ:rhB7-1 blocking assay, 18 h, pH 7.0” value was ~1 nM. Moreover, the “IC50 (read off the curve), mIL-2 secretion, 58αβ-hCTLA/mCD3ζ:rhB7-1 blocking assay, 18 h, pH 7.2” value in [12] is ~1 nM.

B4: ipi.1 Fab (Fab, V domains shown)
VH: B1 VH with H31S, T33H, H56N
VL: not shown
notes: Tested as monovalent Fab; also called T33H (Kabat)
In the case of B4, in assay [3], the “KD 7.4/6 (APBP)” value was determined as 1.2. Further, in [4], the Kd was 7.7 nM, the kon worked out at 960000 M⁻¹ s⁻¹ and the “t1/2” value was determined as 1.57 min. In [5], the equilibrium dissociation constant (Kd) came to 8.6 nM, the kon turned out to be 840000 M⁻¹ s⁻¹ and the “t1/2” value amounted to 1.6 min. In assay [6], this molecule displayed a Kd of 17 nM, a koff of 0.011 s⁻¹ and a kon of 650000 M⁻¹ s⁻¹. Further, in assay [7], the Kd is 20 nM, the koff is 0.011 s⁻¹ and the kon worked out at 560000 M⁻¹ s⁻¹. Further, in assay [8], the “KD 7.4/6 (APBP)” value came out at 1.1, the “ka 6/7.4” value was 1.1 and the “t1/2 6/7.4” value is 1.

B5: ipi.100, non-fucosylated IgG1 (antibody, V domains shown)
VH: B1 VH with H56N
VL: not shown
modifications: non-fucosylated N-linked glycan
notes: Non-fucosylated full-length human IgG1; also called Ipi.100 IgG1-NF
Turning to B5, the “Cmax (MFI)” value came out at 122000 MFI in assay [9], 126000 MFI in assay [13] and 125000 MFI in assay [14]. Besides, the EC50 came to 2.94 nM in assay [9], 2.85 nM in assay [13] and 2.8 nM in [14]. For the same molecule, in assay [10], the “IC50 (read off the curve), mIL-2 secretion, 58αβ-hCTLA/mCD3ζ:rhB7-1 blocking assay, 18 h, pH 6.8” value was ~1 nM. In addition, the “IC50 (read off the curve), mIL-2 secretion, 58αβ-hCTLA/mCD3ζ:rhB7-1 blocking assay, 18 h, pH 7.0” value in assay [11] was ~1 nM. The “IC50 (read off the curve), mIL-2 secretion, 58αβ-hCTLA/mCD3ζ:rhB7-1 blocking assay, 18 h, pH 7.2” value in [12] was ~1 nM.

B6: ipi.25 Fab (Fab, V domains shown)
VH: B1 VH with H31S, H56N
VL: not shown
notes: Tested as monovalent Fab; also called LCDR1 S28E/S31D; LCDR1 S27aE/S30D (Kabat)
As for B6, in assay [15], the “CAPBP (ratio of KD normalized to ipilimumab)” value was 6.3. For the same molecule, the Kd in assay [16] was 25 nM; in assay [18], 37 nM; in [4], 6.2 nM; in assay [19], 7.4 nM; in [5], 25 nM; in assay [23] it was 6.2 nM. The koff was 0.018 s⁻¹ in assay [16], 0.017 s⁻¹ in assay [18], 0.0074 s⁻¹ in assay [19] and 0.0077 s⁻¹ in assay [23]. Also, the kon in assay [16] is 720000 M⁻¹ s⁻¹; in [18], 460000 M⁻¹ s⁻¹; in [4], 1.2e+06 M⁻¹ s⁻¹; in assay [19], 1e+06 M⁻¹ s⁻¹; in assay [5], 720000 M⁻¹ s⁻¹; in [23] it was 1.2e+06 M⁻¹ s⁻¹. Also, the “KD 7.4/6 (APBP)” value in assay [17] is 4; in assay [20], 5; in assay [8] it was 4.1. Further, the “ka 6/7.4” value is 1.7 in [17], 2.2 in assay [20] and 1.7 in assay [8]. Moreover, the “kd 7.4/6” value in [17] and in assay [20] was 2.3 in each case. The “t1/2” value came out at 1.5 min in assay [4] and 0.65 min in [5]. The “ratio of KD (7.4/6.0) normalized to the ratio of ipilimumab” value in assay [21] was 4; in assay [22], 6.3. The “t1/2 6/7.4” value in assay [8] came out at 2.4.

For the origin of these results see patent publication US20220193237A1 (Bristol-Myers Squibb, published 2022).
